{
  "source": "paper PMC12218921",
  "about": "“An adaptive peptide-binding site in ubiquitin receptor hRpn13 revealed by structural studies” (Nature Communications, 2025)",
  "binders": {"B1": {"name": "hRpn2 (940–953) (peptide)", "peptide": "QEPEPPEPFEYIDD", "notes": "source: synthetic peptide (GenScript Biotech; for the fluorescence polarization assay bought: New England Peptide)"}, "B2": {"name": "hRpn13_ΔMTT (domain or fragment, human)", "chain": "GSSGALFPSLVPGSRGASNKYLVEFRAGKMSLKGTTVTPDKRKGLVYIQQTDDSLIHFCWKDRTSGNVEDDLIIFPDDCEFKRVPQCPSGRVYVLKFKAGSKRLFFWMQEPKTDQDEEHCRKVNEYLNNPPMPGALGASGSSGHELSAL", "notes": "hRpn13 (ADRM1), human, hRpn13 (1-150) without M1-T3; 15N-labelled for NMR; also called hRpn13 Pru variant with ENT M1 – T3, aG, and bP deleted; source: E. coli BL21 (DE3), purified (glutathione sepharose, thrombin cleavage, Superdex 75); not shown: GST, N-terminal, cleaved"}, "B3": {"name": "hRpn13 Pru (1–150) (domain or fragment, human)", "chain": "GPGSMTTSGALFPSLVPGSRGASNKYLVEFRAGKMSLKGTTVTPDKRKGLVYIQQTDDSLIHFCWKDRTSGNVEDDLIIFPDDCEFKRVPQCPSGRVYVLKFKAGSKRLFFWMQEPKTDQDEEHCRKVNEYLNNPPMPGALGASGSSGHELSAL", "notes": "four non-native residues (aG-bP-cG-dS) left at the N-terminus after PreScission cleavage of the purification tag; hRpn13 (ADRM1), human, residues 1-150 holding the Pru domain; 15N-labelled (M9 medium) for the NMR experiments, unlabelled (LB) for crystallography; S4-N20 are not seen in the electron density; also called hRpn13 (1–150); Pru-A; source: E. coli BL21(DE3) pLysS, purified (Talon resin, …)"}, "B4": {"name": "TAMRA-labeled hRpn2 (940–953) (peptide)", "peptide": "QEPEPPEPFEYIDD", "modifications": "also: TAMRA attached, position not given here", "notes": "also called TAMRA-hRpn2; source: bought: New England Peptide"}, "B5": {"name": "EDGEGEE peptide (peptide)", "peptide": "EDGEGEE", "notes": "acidic peptide chosen by the authors; also called acidic peptide; source: synthetic peptide (GenScript)"}},
  "key": {"hRpn13_ΔMTT": {"molecular_target": "B2", "experiment": "fluorescence polarisation; competition: unlabeled peptide at various concentrations preincubated with 80 nM hRpn13_ΔMTT, then 10 nM TAMRA-hRpn2 (940–953) added; PBS with 1 mM TCEP, room temperature; [Inhibitor] vs response (three parameters) fit; estimated EC50", "conditions": "both partners purified"}, "K48-diUb^D77": {"molecular_target": "T1, K48-diUb^D77 (human, UniProt P0CG48 1-76; P0CG48 1-76, K48R, G76 joined by an isopeptide bond to K48 of the other ubiquitin | K48 joined by an isopeptide bond to G76 of Ub-K48R)", "T1 construct": "Ub-K48R (distal, by the methods): ubiquitin, human; Ub-D77 (proximal, by the methods): ubiquitin, human; additional aspartate at position 77 (Ub-D77); Two ubiquitins joined covalently K48-G76; The results call the extended moiety distal, the methods call it proximal; also called K48-linked diubiquitin; source: made enzymatically (E1 from R&D Systems, E2-25K) from ubiquitin proteins expressed in …", "experiment": "NMR titration; 1H-15N HSQC of 0.1 mM 15N-labeled hRpn13_ΔMTT alone and with unlabeled ligand (peptides at varying molar ratios up to 20-fold excess; hRpn2 (940-953) or ubiquitin equimolar, alone or together with 20-fold EDGEGEE; K48-diUb at 4:1, 2:1 and 1:1 hRpn13 to diUb); NMR buffer (20 mM sodium phosphate pH 6.5, 50 mM NaCl, 1 mM TCEP, 10% D2O), 25 °C, 600 MHz", "conditions": "both partners purified"}, "ubiquitin": {"molecular_target": "T2, ubiquitin (human, UniProt P0CG48 1-76)", "T2 construct": "ubiquitin, human, the 76-residue cut product of the polyubiquitin precursor; source: E. coli Rosetta 2(DE3), untagged, purified (cation exchange, SEC)", "experiment": "NMR titration; 1H-15N HSQC of 0.1 mM 15N-labeled hRpn13_ΔMTT alone and with unlabeled ligand (peptides at varying molar ratios up to 20-fold excess; hRpn2 (940-953) or ubiquitin equimolar, alone or together with 20-fold EDGEGEE; K48-diUb at 4:1, 2:1 and 1:1 hRpn13 to diUb); NMR buffer (20 mM sodium phosphate pH 6.5, 50 mM NaCl, 1 mM TCEP, 10% D2O), 25 °C, 600 MHz", "conditions": "both partners purified"}, "K48-diUb^EDGEGEE": {"molecular_target": "T3, K48-diUb^EDGEGEE (human, UniProt P0CG48 1-76; P0CG48 1-76, K48R, G76 joined by an isopeptide bond to K48 of the other ubiquitin | K48 joined by an isopeptide bond to G76 of Ub-K48R)", "T3 construct": "Ub-K48R (distal, by the methods): ubiquitin, human; Ub-EDGEGEE (proximal, by the methods): ubiquitin, human; 6-residue linker added to the ubiquitin C-terminal end; Two ubiquitins joined covalently K48-G76; The results call the extended moiety distal, the methods call it proximal; also called K48-linked diubiquitin with Ub-EDGEGEE; source: made enzymatically (E1 from R&D Systems, E2-25K) from …", "experiment": "NMR titration; 1H-15N HSQC of 0.1 mM 15N-labeled hRpn13_ΔMTT alone and with unlabeled ligand (peptides at varying molar ratios up to 20-fold excess; hRpn2 (940-953) or ubiquitin equimolar, alone or together with 20-fold EDGEGEE; K48-diUb at 4:1, 2:1 and 1:1 hRpn13 to diUb); NMR buffer (20 mM sodium phosphate pH 6.5, 50 mM NaCl, 1 mM TCEP, 10% D2O), 25 °C, 600 MHz", "conditions": "both partners purified"}, "K48-diUb^ENT": {"molecular_target": "T4, K48-diUb^ENT (human, UniProt P0CG48 1-76; P0CG48 1-76, K48R, G76 joined by an isopeptide bond to K48 of the other ubiquitin | K48 joined by an isopeptide bond to G76 of Ub-K48R)", "T4 construct": "Ub-K48R (distal, by the methods): ubiquitin, human; Ub-ENT (proximal, by the methods): ubiquitin, human; 6-residue linker added to the ubiquitin C-terminal end; Two ubiquitins joined covalently K48-G76; The results call the extended moiety distal, the methods call it proximal; also called K48-linked diubiquitin with Ub-ENT; source: made enzymatically (E1 from R&D Systems, E2-25K) from ubiquitin …", "experiment": "NMR titration; 1H-15N HSQC of 0.1 mM 15N-labeled hRpn13_ΔMTT alone and with unlabeled ligand (peptides at varying molar ratios up to 20-fold excess; hRpn2 (940-953) or ubiquitin equimolar, alone or together with 20-fold EDGEGEE; K48-diUb at 4:1, 2:1 and 1:1 hRpn13 to diUb); NMR buffer (20 mM sodium phosphate pH 6.5, 50 mM NaCl, 1 mM TCEP, 10% D2O), 25 °C, 600 MHz", "conditions": "both partners purified"}, "[1]": {"molecular_target": "B4", "experiment": "fluorescence polarisation; hRpn13_ΔMTT titrated against TAMRA-hRpn2 (940–953); PBS with 1 mM TCEP, room temperature; [Agonist] vs response (three parameters) fit", "conditions": "both partners purified"}, "[2]": {"molecular_target": "the molecule itself", "experiment": "crystal structure; hRpn13 (1–150) at 560 μM in 20 mM HEPES pH 7.5, 100 mM NaCl, 1 mM TCEP; microbatch-under-oil at 4 °C with 0.1 M sodium acetate pH 4.6, 22% PEG3350; one molecule per asymmetric unit, ENT at the interface of Pru molecules of the lattice; 1.85 Å"}},
  "note": "No end group written: not given here.",
  "data": [
    {"binder": "B1", "values": [
      {"measurement": "EC50", "setting": "hRpn13_ΔMTT", "result": "0.32 ± 0.02", "unit": "µM"}
    ]},
    {"binder": "PPEPFEYIDD (source: bought: New England Peptide)", "note": "[hRpn2 (944–953)]", "values": [
      {"measurement": "EC50", "setting": "hRpn13_ΔMTT", "result": "87 ± 6", "unit": "µM"}
    ]},
    {"binder": "B2", "values": [
      {"measurement": "binding result", "setting": "K48-diUb^D77", "result": "binds"},
      {"measurement": "binding result", "setting": "ubiquitin", "result": "binds"},
      {"measurement": "binding result", "setting": "K48-diUb^EDGEGEE", "result": "binds"},
      {"measurement": "binding result", "setting": "K48-diUb^ENT", "result": "binds"},
      {"measurement": "EC50", "setting": "[1]", "result": "0.043 ± 0.007", "unit": "µM"}
    ]},
    {"binder": "B3", "values": [
      {"measurement": "binding result", "setting": "[2]", "result": "binds"}
    ]},
    {"binder": "B4", "values": [
      {"measurement": "binding result", "setting": "hRpn13_ΔMTT", "result": "binds"}
    ]},
    {"binder": "B5", "values": [
      {"measurement": "EC50", "setting": "hRpn13_ΔMTT", "result": "637 ± 51", "unit": "µM"}
    ]}
  ]
}
